From article PMC8096250

Molecular target: Nhp2 (W);Cbf5;Nop10;Gar1 (Saccharomyces cerevisiae;Saccharomyces cerevisiae;Saccharomyces cerevisiae;Saccharomyces cerevisiae) (UniProt P33322+Q6Q547+P28007)
Test: smFRET
Conditions: substrate RNA binding to the reconstituted H5 RNP; substrate is an analogue RNA; sequence as assayed not given; smFRET with immobilized 3'-biotin RNA; smFRET buffer not in the material (RNP reconstitution for activity assays: 12.5 mM Tris/HCl pH 8.0, 250 mM NaCl, 30 °C)

How did the binding signal (% of RNPs substrate bound) turn out when “H5 U61-donor snoRNA with acceptor-labeled H5 substrate RNA” was run?
The binding signal (% of RNPs substrate bound) was 37.
